The target of the experiment is T1, Gβ1γ2 tagged with yellow fluorescent proteins (YFP-Gβ1 and YFP-Gγ2) (UniProt P62873 1-340; P59768 1-71).
T1 construct: G protein subunit beta-1 (Gβ1), from plasmid pcDNA3.1-YFP-G-protein Gβ1 (gift of N. Gautam); G protein subunit gamma-2 (Gγ2), from plasmid pcDNA3.1-YFP-G-protein-Gγ2 (gift of N. Gautam); Both chains co-expressed and precipitated together with anti-GFP antibodies; also called Gβγ; source: HEK293T, transfected (pcDNA3.1-YFP-G-protein Gβ1 and pcDNA3.1-YFP-G-protein-Gγ2), in lysate
Put plainly: co-IP; HEK293T cells co-transfected with YFP-Gβ1, YFP-Gγ2 and GIRK2A WT or Y353X (doubled plasmid for Y353X); IP 24 h after transfection with mouse anti-GFP antibodies and Protein A/G agarose; blot with anti-GIRK2 N-terminal antibodies; band ratio GIRK2A/YFP-Gβ1 normalised to GIRK2A WT. Particulars: partners not purified.

B1: GIRK2A-Y353X (domain or fragment)
chain: MTMAKLTESMTNVLEGDSMDQDVESPVAIHQPKLPKQARDDLPRHISRDRTKRKIQRYVRKDGKCNVHHGNVRETYRYLTDIFTTLVDLKWRFNLLIFVMVYTVTWLFFGMIWWLIAYIRGDMDHIEDPSWTPCVTNLNGFVSAFLFSIETETTIGYGYRVITDKCPEGIILLLIQSVLGSIVNAFMVGCMFVKISQPKKRAETLVFSTHAVISMRDGKLCLMFRVGDLRNSHIVEASIRAKLIKSKQTSEGEFIPLNQSDINVGYYTGDDRLFLVSPLIISHEINQQSPFWEISKAQLPKEELEIVVILEGIVEATGMTCQARSSYITSEILWGYRFTPVLTMEDGFYEVD
notes: GIRK2A (Kir3.2, cDNA NM_010606.2) with Y353 mutated to a stop codon, so the chain ends at D352 of the 349YEVD352 motif; mimics GIRK2A cleaved by caspase-3; Untagged; made by QuikChange mutagenesis of pcDNA3-GIRK2A; also called GIRK2-Y353X; truncated GIRK2A-Y353X; source: HEK293T, transfected (FuGENE6, pcDNA3-GIRK2A Y353X, doubled amount of plasmid), in lysate
As to B1, the “coimmunoprecipitation, % of wild-type GIRK2A” value is 50 % of wild-type GIRK2A.

(Values after paper PMC5615076, “Prolonged seizure activity causes caspase dependent cleavage and dysfunction of G-protein activated inwardly rectifying potassium channels” (Scientific Reports, 2017).)
